# Source: IntAct's records for PubMed 25684205
# B1: Kelch repeat and BTB domain-containing protein 6 (Homo sapiens), Q86V97 (parent)
# chain: MQSREDAPRSRRLASPRGGKRPKKIHKPTVSAFFTGPEELKDTAHSAALLAQLKSFYDARLLCDVTIEVVTPGSGPGTGRLFPCNRNVLAAACPYFKSMFTGGMYESQQASVTMHDVDAESFEVLVDYCYTGRVSLSEANVERLYAASDMLQLEYVREACASFLARRLDLTNCTAILKFADAFGHRKLRSQAQSYIAQNFKQLSHMGSIREETLADLTLAQLLAVLRLDSLDVESEQTVCHVAVQWLEAAPKERGPSAAEVFKCVRWMHFTEEDQDYLEGLLTKPIVKKYCLDVIEGALQMRYGDLLYKSLVPVPNSSSSSSSSNSLVSAAENPPQRLGMCAKEMVIFFGHPRDPFLCCDPYSGDLYKVPSPLTCLAHTRTVTTLAVCISPDHDIYLAAQPRTDLWVYKPAQNSWQQLADRLLCREGMDVAYLNGYIYILGGRDPITGVKLKEVECYNVKRNQWALVAPLPHSFLSFDLMVIRDYLYALNSKRMFCYDPSHNMWLKCVSLKRNDFQEACVFNEEIYCICDIPVMKVYNPVRAEWRQMNNIPLVSETNNYRIIKHGQKLLLITSRTPQWKKNRVTVYEYDIRGDQWINIGTTLGLLQFDSNFFCLSARVYPSCLEPGQSFLTEEEEIPSESSTEWDLGGFSEPDSESGSSSSLSDDDFWVRVAPQ
# B2: Kelch repeat and BTB domain-containing protein 7 (Homo sapiens), Q8WVZ9 (parent)
# chain: MQSREDVPRSRRLASPRGGRRPKRISKPSVSAFFTGPEELKDTAHSAALLAQLKSFYDARLLCDVTIEVVTPGSGPGTGRLFSCNRNVLAAACPYFKSMFTGGMYESQQASVTMHDVDAESFEVLVDYCYTGRVSLSEANVQRLYAASDMLQLEYVREACASFLARRLDLTNCTAILKFADAFDHHKLRSQAQSYIAHNFKQLSRMGSIREETLADLTLAQLLAVLRLDSLDIESERTVCHVAVQWLEAAAKERGPSAAEVFKCVRWMHFTEEDQDYLEGLLTKPIVKKYCLDVIEGALQMRYGDLLYKSLVPVPNSSSSSSSSNSLVSAAENPPQRLGMCAKEMVIFFGHPRDPFLCYDPYSGDIYTMPSPLTSFAHTKTVTSSAVCVSPDHDIYLAAQPRKDLWVYKPAQNSWQQLADRLLCREGMDVAYLNGYIYILGGRDPITGVKLKEVECYSVQRNQWALVAPVPHSFYSFELIVVQNYLYAVNSKRMLCYDPSHNMWLNCASLKRSDFQEACVFNDEIYCICDIPVMKVYNPARGEWRRISNIPLDSETHNYQIVNHDQKLLLITSTTPQWKKNRVTVYEYDTREDQWINIGTMLGLLQFDSGFICLCARVYPSCLEPGQSFITEEDDARSESSTEWDLDGFSELDSESGSSSSFSDDEVWVQVAPQRNAQDQQGSL
# Variants of: B1
# Conditions: with tiam1_human TIAM1, Q13009
row,Variant,effect of a mutation on the interaction
1,W668A,decreasing interaction strength

# Variants of: B1
# Conditions: with cul3_human CUL3, Q13618
row,Variant,effect of a mutation on the interaction
1,M99A,disrupting interaction strength

# Variants of: B2
# Conditions: with gbrap_human GABARAP
row,Variant,effect of a mutation on the interaction
1,Y559A,with no effect
2,W668A,decreasing interaction strength
3,F122A,with no effect
4,F649A,with no effect

# Variants of: B2
# Conditions: with gbrl2_human GABARAPL2, P60520
# Chain of gbrl2_human GABARAPL2, P60520 (P60520 whole entry): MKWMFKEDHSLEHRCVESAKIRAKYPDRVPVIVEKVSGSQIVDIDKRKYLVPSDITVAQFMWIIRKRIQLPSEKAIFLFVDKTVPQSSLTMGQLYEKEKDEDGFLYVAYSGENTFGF
row,Variant,effect of a mutation on the interaction
1,Y559A,with no effect
2,W668A,with no effect
3,F122A,with no effect
4,F649A,with no effect

# Variants of: B2
# Conditions: with mlp3b_human MAP1LC3B
row,Variant,effect of a mutation on the interaction
1,Y559A,with no effect
2,W668A,disrupting interaction strength
3,F122A,with no effect
4,F649A,with no effect

# Variants of: B2
# Conditions: with tiam1_human TIAM1, Q13009
# Target sequence in this assay (Q13009 whole entry): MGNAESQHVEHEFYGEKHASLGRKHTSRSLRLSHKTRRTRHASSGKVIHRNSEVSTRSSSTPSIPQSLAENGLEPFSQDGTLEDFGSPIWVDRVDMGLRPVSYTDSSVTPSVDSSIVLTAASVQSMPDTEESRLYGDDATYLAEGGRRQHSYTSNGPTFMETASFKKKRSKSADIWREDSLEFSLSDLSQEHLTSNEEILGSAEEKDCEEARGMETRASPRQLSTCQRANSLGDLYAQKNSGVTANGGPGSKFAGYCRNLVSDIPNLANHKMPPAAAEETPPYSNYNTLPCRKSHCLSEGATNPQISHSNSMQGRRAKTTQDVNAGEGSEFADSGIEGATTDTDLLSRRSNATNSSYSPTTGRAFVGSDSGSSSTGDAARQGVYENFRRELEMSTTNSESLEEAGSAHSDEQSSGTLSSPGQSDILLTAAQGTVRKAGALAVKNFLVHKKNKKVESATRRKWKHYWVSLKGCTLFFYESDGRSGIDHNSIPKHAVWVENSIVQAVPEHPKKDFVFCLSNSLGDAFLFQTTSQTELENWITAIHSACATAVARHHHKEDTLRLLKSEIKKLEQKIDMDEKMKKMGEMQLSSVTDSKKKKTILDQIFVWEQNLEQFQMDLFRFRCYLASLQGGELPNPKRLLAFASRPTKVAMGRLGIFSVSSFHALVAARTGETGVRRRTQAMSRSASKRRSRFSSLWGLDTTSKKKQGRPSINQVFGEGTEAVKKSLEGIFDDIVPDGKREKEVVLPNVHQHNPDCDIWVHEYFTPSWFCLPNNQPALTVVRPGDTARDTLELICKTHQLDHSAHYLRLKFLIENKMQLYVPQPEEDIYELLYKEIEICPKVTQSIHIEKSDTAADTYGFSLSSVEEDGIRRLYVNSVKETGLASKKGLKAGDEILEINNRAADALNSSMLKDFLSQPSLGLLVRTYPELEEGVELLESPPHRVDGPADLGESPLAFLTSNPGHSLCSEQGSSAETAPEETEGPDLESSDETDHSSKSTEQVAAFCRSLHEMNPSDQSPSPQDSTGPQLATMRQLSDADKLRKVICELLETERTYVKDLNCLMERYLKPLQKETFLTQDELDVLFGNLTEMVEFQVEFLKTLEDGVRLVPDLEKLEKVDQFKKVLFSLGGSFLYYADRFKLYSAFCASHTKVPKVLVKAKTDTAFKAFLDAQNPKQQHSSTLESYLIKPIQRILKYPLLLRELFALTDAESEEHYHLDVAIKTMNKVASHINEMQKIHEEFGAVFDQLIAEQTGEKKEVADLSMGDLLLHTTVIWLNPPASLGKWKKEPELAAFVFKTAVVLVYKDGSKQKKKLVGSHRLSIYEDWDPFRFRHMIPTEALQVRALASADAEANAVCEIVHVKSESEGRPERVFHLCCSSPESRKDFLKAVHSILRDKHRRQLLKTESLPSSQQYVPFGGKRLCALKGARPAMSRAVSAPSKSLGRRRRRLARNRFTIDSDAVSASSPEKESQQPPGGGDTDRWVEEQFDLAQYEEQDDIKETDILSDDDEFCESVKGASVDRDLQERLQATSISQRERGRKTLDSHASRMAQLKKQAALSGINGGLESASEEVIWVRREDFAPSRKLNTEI
row,Variant,effect of a mutation on the interaction
1,W668A,decreasing interaction strength
2,M99A,with no effect

# Variants of: B2
# Conditions: with cul3_human CUL3, Q13618
row,Variant,effect of a mutation on the interaction
1,M99A,disrupting interaction strength
